The values below come from article PMC3942486, “The Ansamycin Antibiotic, Rifamycin SV, Inhibits BCL6 Transcriptional Repression and Forms a Complex with the BCL6-BTB/POZ Domain” (PLoS ONE, 2014).

For the assay, the target named is BCL6-POZ domain (residues 7 to 128 of human BCL6, C8Q, C67R, C84N) (UniProt P41182). Kind of assay: fluorescence polarisation.

The Kd is a measure of binding affinity in units of concentration. “wild-type SMRT peptide, labelled with BODIPY TMR H1426(styrylalanine)” had a Kd of 41 µM.

For the substance “wild-type SMRT peptide, labelled with BODIPY TMR H1426(homophenylalanine)”, the equilibrium dissociation constant (Kd) amounted to 43 µM.
